# Experimental data published in paper PMC11934139.
# Biological target: αCRP scFv-His6 (LA13-IIE3)
# Test: BLI; αCRP scFv (2 μg/mL) immobilised on Octet Ni-NTA biosensors; CRP at 250, 125, 62.5, 15.6 and 7.8 nM; HBS Kinetics Buffer (1% heat-inactivated BSA, 0.2% Tween 20, 10 mM HEPES pH 7.4, 150 mM NaCl), 30 °C; two-state reaction model
binder,measurement,value
human C-reactive protein (natural protein) QTDMSRKAFVFPKESDTSYVSLKAPLTKPLKAFTVCLHFYTELSSTRGYSIFSYATKRQDNEILIFWSKDIGYSFTVGGSEILFEVPEVTVAPVHICTSWESASGIVEFWVDGKPRVRKSLKKGYTVGAEASIILGQEQDSFGGNFEGSQSLVGDIGNVNMWDFVLSPDEINTIYLGGPFSPNVLNWRALKYEVQGEVFTKPQLWP,Kd,588 nM
